According to article PMC4321167 (2015):

T1: GST-FD (Arabidopsis thaliana (Mouse-ear cress), UniProt Q84JK2)
T1 chain: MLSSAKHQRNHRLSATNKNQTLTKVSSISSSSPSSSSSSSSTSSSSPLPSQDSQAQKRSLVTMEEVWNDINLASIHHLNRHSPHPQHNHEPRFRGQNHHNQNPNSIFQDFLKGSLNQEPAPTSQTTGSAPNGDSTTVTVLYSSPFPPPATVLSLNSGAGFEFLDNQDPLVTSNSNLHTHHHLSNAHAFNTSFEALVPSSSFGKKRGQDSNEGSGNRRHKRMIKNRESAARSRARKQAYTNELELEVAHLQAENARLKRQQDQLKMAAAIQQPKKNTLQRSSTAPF

B1: Trx-His-CPK33 (protein)
chain: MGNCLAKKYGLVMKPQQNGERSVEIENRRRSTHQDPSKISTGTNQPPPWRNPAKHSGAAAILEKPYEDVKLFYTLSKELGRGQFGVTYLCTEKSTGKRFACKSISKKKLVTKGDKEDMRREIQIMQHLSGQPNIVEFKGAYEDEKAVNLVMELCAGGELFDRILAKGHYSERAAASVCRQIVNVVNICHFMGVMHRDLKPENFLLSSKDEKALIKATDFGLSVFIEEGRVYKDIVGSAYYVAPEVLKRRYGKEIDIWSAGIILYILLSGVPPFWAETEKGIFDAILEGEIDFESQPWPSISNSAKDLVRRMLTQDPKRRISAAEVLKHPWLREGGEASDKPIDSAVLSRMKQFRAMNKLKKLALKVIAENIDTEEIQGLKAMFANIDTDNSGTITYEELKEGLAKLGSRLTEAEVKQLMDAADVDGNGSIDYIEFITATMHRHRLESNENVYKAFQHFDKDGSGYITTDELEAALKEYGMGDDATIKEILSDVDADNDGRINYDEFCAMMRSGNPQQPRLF
B2: Trx-His-CPK6 (protein)
chain: MGNSCRGSFKDKIYEGNHSRPEENSKSTTTTVSSVHSPTTDQDFSKQNTNPALVIPVKEPIMRRNVDNQSYYVLGHKTPNIRDLYTLSRKLGQGQFGTTYLCTDIATGVDYACKSISKRKLISKEDVEDVRREIQIMHHLAGHKNIVTIKGAYEDPLYVHIVMELCAGGELFDRIIHRGHYSERKAAELTKIIVGVVEACHSLGVMHRDLKPENFLLVNKDDDFSLKAIDFGLSVFFKPGQIFKDVVGSPYYVAPEVLLKHYGPEADVWTAGVILYILLSGVPPFWAETQQGIFDAVLKGYIDFDTDPWPVISDSAKDLIRKMLCSSPSERLTAHEVLRHPWICENGVAPDRALDPAVLSRLKQFSAMNKLKKMALKVIAESLSEEEIAGLRAMFEAMDTDNSGAITFDELKAGLRRYGSTLKDTEIRDLMEAADVDNSGTIDYSEFIAATIHLNKLEREEHLVSAFQYFDKDGSGYITIDELQQSCIEHGMTDVFLEDIIKEVDQDNDGRIDYEEFVAMMQKGNAGVGRRTMKNSLNISMRDV

Biological target: T1, GST-FD
Assay: GST pull-down

Binder | binding result
B1 | binds
B2 | binds
